Laboratory results: article PMC4811591, “Role of the Substrate Specificity-Defining Residues of Human SIRT5 in Modulating the Structural Stability and Inhibitory Features of the Enzyme” (PLoS ONE, 2016)
Where a chain is given by its changes, count along the chain named. Names may count otherwise.

What was measured:
Type in all cases: biochemical, human
[1] = substrate: NC(=O)c1ccc[n+]([C@@H]2O[C@H](COP(=O)([O-])OP(=O)(O)OC[C@H]3O[C@@H](n4cnc5c(N)ncnc54)[C@H](O)[C@@H]3O)[C@@H](O)[C@H]2O)c1; assay: SIRT1 deacetylation reaction, trypsin coupled assay with Fluor-de-lys; details: other: deacetylation, acetyl substrate; pH 8.0; 25.0 °C
Procedure: (§1) The steady state rates of the enzyme catalyzed reactions were derived from the time dependent changes in the fluorescence signal, and the data were analyzed by the ternary complex kinetic mechanism (Eq 4) via Grafit 4 software.
(§2) The steady-state kinetic data were fitted globally by the competitive, mixed, and noncompetitive inhibition models using the DYNAFIT software based on the rapid-equilibrium approximation [43]. All the parameters were allowed to float except for the enzyme concentration. The software utilizes several model-discrimination criteria, including the second order Akaike Information Criterion (AIC) [44, 45], so that the best model out of the three different candidates could be identified.

[2] = substrate: NC(=O)c1ccc[n+]([C@@H]2O[C@H](COP(=O)([O-])OP(=O)(O)OC[C@H]3O[C@@H](n4cnc5c(N)ncnc54)[C@H](O)[C@@H]3O)[C@@H](O)[C@H]2O)c1; assay: SIRT5 wild type desuccinylation reaction, trypsin coupled fluorescence assay with Ac-SucLys-AMC; details: other: desuccinylation, succinyl substrate, 25°C, pH 8.0
Procedure: as §1, §2

[3] = substrate: NC(=O)c1ccc[n+]([C@@H]2O[C@H](COP(=O)([O-])OP(=O)(O)OC[C@H]3O[C@@H](n4cnc5c(N)ncnc54)[C@H](O)[C@@H]3O)[C@@H](O)[C@H]2O)c1; assay: SIRT5 Y102A desuccinylation reaction, trypsin coupled assay with Ac-SucLys-AMC; details: other: desuccinylation, succinyl substrate; pH 8.0; 25.0 °C
Procedure: as §1, §2

[4] = substrate: NC(=O)c1ccc[n+]([C@@H]2O[C@H](COP(=O)([O-])OP(=O)(O)OC[C@H]3O[C@@H](n4cnc5c(N)ncnc54)[C@H](O)[C@@H]3O)[C@@H](O)[C@H]2O)c1; assay: SIRT5 Y102A deacetylation reaction, trypsin coupled assay with Fluor-de-lys; details: other: deacetylation, acetyl substrate; pH 8.0; 25.0 °C
Procedure: as §1, §2

[5] = substrate: NC(=O)c1ccc[n+]([C@@H]2O[C@H](COP(=O)([O-])OP(=O)(O)OC[C@H]3O[C@@H](n4cnc5c(N)ncnc54)[C@H](O)[C@@H]3O)[C@@H](O)[C@H]2O)c1; assay: SIRT5 R105I deacetylation reaction, trypsin coupled assay with Fluor-de-lys; details: other: deacetylation, acetyl substrate; pH 8.0; 25.0 °C
Procedure: as §1, §2

[6] = substrate: NC(=O)c1ccc[n+]([C@@H]2O[C@H](COP(=O)([O-])OP(=O)(O)OC[C@H]3O[C@@H](n4cnc5c(N)ncnc54)[C@H](O)[C@@H]3O)[C@@H](O)[C@H]2O)c1; assay: SIRT5 Y102A/R105I deacetylation reaction, trypsin coupled assay with Fluor-de-lys; details: other: deacetylation, acetyl substrate; pH 8.0; 25.0 °C
Procedure: The sirtuin catalyzed deacetylase and desuccinylase reactions were measured via the trypsin coupled assay system as described by Madsen et al [39]. […] Since trypsin was used as a coupling enzyme, its concentration was optimized to ensure the emergence of minimal or negligible lag-phase prior to the onset of the steady state phase [42]. […] The steady state rates of the enzyme catalyzed reactions were derived from the time dependent changes in the fluorescence signal, and the data were analyzed by the ternary complex kinetic mechanism (Eq 4) via Grafit 4 software.
as §2
Other reaction conditions were the same as described above. The data were fitted by Eq 5 by Grafit 4.0.

B1: SIRT1 (Homo sapiens) (protein)
chain: MIGTDPRTILKDLLPETIPPPELDDMTLWQIVINILSEPPKRKKRKDINTIEDAVKLLQECKKIIVLTGAGVSVSCGIPDFRSRDGIYARLAVDFPDLPDPQAMFDIEYFRKDPRPFFKFAKEIYPGQFQPSLCHKFIALSDKEGKLLRNYTQNIDTLEQVAGIQRIIQCHGSFATASCLICKYKVDCEAVRGDIFNQVVPRCPRCPADEPLAIMKPEIVFFGENLPEQFHRAMKYDKDEVDLLIVIGSSLKVRPVALIPSSIPHEVPQILINREPLPHLHFDVELLGDCDVIINELCHRLGGEYAKLCCNPVKLSEITEKPPRTQKELAYLSELPPTPLHVSEDSSSPERTSPPDSSVIVTLLDQAAKSNDDLDVSESKGCMEEKPQEVQTSRNVESIAEQMENPDLKNVGSSTGEKNERTSVAGTVRKCWPNRVAKEQISRRLDGNQYLFLPPNRYIFHGAEVYSDSEDDVLSSSSCGSNSDSGTCQSPSLEEPMEDESEIEEFYNGLEDEPDVPERAGGAGFGTDGDDQEAINEAISVKQEVTDMNYPSNKS
notes: SIRT1 (193–747) and SIRT5 (51–301) were cloned into the pLIC-His expression vector; His tag (pLIC-His vector); made in house; host or cells: E. coli BL21(DE3) Star
B1 showed a Km [1] of 388 ± 73 µM, a kcat [1] of 0.000579 ± 9.1e-05 s⁻¹ and a kcat/Km [1] of 1.63 M⁻¹ s⁻¹.

B2: SIRT5 wild type (Homo sapiens) (protein)
chain: KHIVIISGAGVSAESGVPTFRGAGGYWRKWQAQDLATPLAFAHNPSRVWEFYHYRREVMGSKEPNAGHRAIAECETRLGKQGRRVVVITQNIDELHRKAGTKNLLEIHGSLFKTRCTSCGVVAENYKSPICPALSGKGAPEPGTQDASIPVEKLPRCEEAGCGGLLRPHVVWFGENLDPAILEEVDRELAHCDLCLVVGTSSVVYPAAMFAPQVAARGVPVAEFNTETTPATNRFRFHFQGPCGTTLPEAL
notes: as for B1
Work on B2 yielded a Km [2] of 69 ± 9 µM.

B3: SIRT5 Y102A (Homo sapiens; Y102A) (protein)
chain: B2 chain with Y52A
notes: as for B1
With B3 the Km [3] was 321 ± 49 µM and the Km [4] was 1605 ± 321 µM.

B4: SIRT5 R105I (Homo sapiens; R105I) (protein)
chain: B2 chain with R55I
notes: as for B1
B4 showed a Km [5] of 609 ± 120 µM.

B5: SIRT5 Y102A/R105I (Homo sapiens; R105I/Y102A) (protein)
chain: B2 chain with Y52A, R55I
notes: as for B1
Work on B5 yielded a Km [6] of 1194 ± 667 µM.
